Experimental findings from publication PMC6888414, “Two Homologous Enzymes of the GalU Family in Rhodococcus opacus 1CP—RoGalU1 and RoGalU2” (International Journal of Molecular Sciences, 2019) are described below.

In data set [1] the target is UDP-glucose pyrophosphorylase RoGalU2 of Rhodococcus opacus 1CP (Rhodococcus opacus 1CP). Put plainly: SEC; Superdex 200 10/300 GL, non-denaturing, 50 mM Hepes pH 7.0, 1 mM magnesium chloride; RoGalU2 at 0.2 and 2.0 mg/mL, in duplicates; mass from a calibration with standard proteins. On the technique in general: In gel filtration, larger molecules generally elute earlier.

Substrate in data set [2]: O=P(O)(O)O[C@H]1O[C@H](CO)[C@@H](O)[C@H](O)[C@H]1O
Put plainly: HPLC of UDP-glucose formation, initial rates. Format: biochemical, Rhodococcus opacus. The note with it: 1.5 mM UTP, 1 mM MgCl2, 50 mM Hepes pH 7.4, 42 °C, glucose 1-phosphate 0.05–10 mM, Michaelis-Menten fit of the low range only, non-Michaelis behaviour above 10 mM. From the text: (§1) HPLC of UDP-glucose formation, initial rates on RoGalU2

Substrate in data set [3]: O=c1ccn([C@@H]2O[C@H](COP(=O)(O)OP(=O)(O)OP(=O)(O)O)[C@@H](O)[C@H]2O)c(=O)[nH]1
Put plainly: HPLC of UDP-glucose formation, initial rates. It counts as biochemical, Rhodococcus opacus. The note with it: 250 mM glucose 1-phosphate, 1 mM MgCl2, 50 mM Hepes pH 7.4, 42 °C, UTP 0.01–5 mM, Yano and Koga substrate inhibition fit.
Source text: as §1

By stoichiometry N is commonly meant the number of molecules, sites or subunits per partner or assembly. Turning to “UDP-glucose pyrophosphorylase RoGalU2 of Rhodococcus opacus 1CP (enzyme)”, the stoichiometry N in data set [1] came out at 6.

B1: RoGalU2 (Rhodococcus opacus) (protein)
chain: MTDAAPHTASAFRTAVVPAAGMGTRFLPATKTVPKELLPVVDTPGIELVAGEAADSGAGRLVIVTSPGKDGVVAHFVEDLVLESKLEASGKYHLLEKVRKAPGLLEVESVIQDEPLGLGHAVGCAESVLDDDEDAIAVLLPDDLVMPRGVLETMSRVRRKRGGTVLCAIDVPKDQVSAYGVFEVETVPDATNPDVLKVIGMVEKPAIEDAPSTFAAAGRYLLDRAIFDALRRIEPGAGGELQLTDAIALLIKEGHPVHVVVHRGTRHDLGNPGGYLRAAVDFALDMEEYGPSLREWLIDRLKRTDS
notes: full length, N-terminal His10 tag (pET16bP), codon-optimized gene in E. coli BL21(DE3) pLysS, HisTrap purified; 34 kDa subunit, hexamer by SEC (188 kDa)
The Km is the concentration of substrate that gives half-maximal velocity. One may read the kcat as the number of substrate molecules converted per active site and unit of time at saturation. The kcat/Km is the second-order rate constant that governs catalysis at low substrate concentration. B1: in data set [2], the Km was 900 µM, the kcat was determined as 3.7 s⁻¹ and the specificity constant (kcat/Km) was 4000 M⁻¹ s⁻¹. Also, in data set [3], the Km worked out at 510 µM, the kcat was 96.2 s⁻¹ and the kcat/Km came to 190000 M⁻¹ s⁻¹.
